Measurements: US20210221894A1 (DRAGONFLY THERAPEUTICS, published 2021)

Tests used:
[1] = biological target: T1, extracellular domain (ECD) of human DLL3 (AdipoGen Life Sciences) (human, UniProt Q9NYJ7 27-492); assay: SPR (Biacore 8K), 37 C, antibody captured on anti-mouse Fc, DLL3 ECD injected, 1:1 fit; approximate
T1 construct: Bought and further purified by size exclusion chromatography; also called hDLL3 ECD; DLL3 ECD
T1 sequence: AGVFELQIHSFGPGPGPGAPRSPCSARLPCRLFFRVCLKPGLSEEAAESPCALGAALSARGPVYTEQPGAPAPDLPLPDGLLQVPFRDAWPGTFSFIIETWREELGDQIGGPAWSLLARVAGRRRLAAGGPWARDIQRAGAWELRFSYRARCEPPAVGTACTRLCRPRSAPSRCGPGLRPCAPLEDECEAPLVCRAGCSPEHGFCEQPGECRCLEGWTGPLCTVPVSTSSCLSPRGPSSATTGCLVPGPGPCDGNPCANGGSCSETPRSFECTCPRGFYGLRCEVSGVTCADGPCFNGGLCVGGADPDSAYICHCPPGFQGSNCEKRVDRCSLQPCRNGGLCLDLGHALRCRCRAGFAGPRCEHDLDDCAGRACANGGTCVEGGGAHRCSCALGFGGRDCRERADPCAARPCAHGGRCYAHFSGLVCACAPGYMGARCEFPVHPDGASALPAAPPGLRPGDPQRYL
Excerpt: (§1) The binding kinetics of different anti-DLL3 antibodies to recombinant proteins of different domains of human DLL3 were studied by surface plasmon resonance (SPR) using a Biacore™ 8K instrument. These anti-DLL3 antibodies were produced from mouse hybridomas, and each included a heavy chain variable region and light chain variable region described herein. Briefly, antibodies recognizing human IgG Fc and antibodies recognizing mouse IgG Fc were immobilized on different channels of a Biacore™ 8K chip to allow simultaneous analysis of human and murine anti-DLL3 antibodies. Murine anti-DLL3 antibodies were captured on the anti-mouse Fc channel of the Biacore chip. The human anti-DLL3 antibody from Stemcentrx (San Francisco, Calif.) was used as a control and was captured onto anti-human Fc channel of the Biacore™ chip. Different concentrations of DLL3 ECD, DLL3 N-terminal domain, EGF2-6, EGF3-6, EGF4-6, or EGF5-6 domains of DLL3 were injected. Experiments were performed at 37° C. Biacore™ 8K evaluation software was used for all data analysis. To obtain kinetic rate constants double-referenced data were fit to a 1:1 interaction model using Biacore™ 8K Evaluation software (GE Healthcare, Marlborough, Mass.). The equilibrium binding constant KD was determined by the ratio of binding rate constants kd/kₐ.
(§2) Table 36 lists the calculated binding kinetics (KD). […]

recombinant human DLL1 = biological target: T2, recombinant human DLL1 (human, UniProt O00548 18-540, limits assumed); assay: ELISA, plate-bound recombinant human DLL1 (1 µg/mL), anti-mouse IgG-HRP/TMB, % of positive control max
T2 sequence (looked up): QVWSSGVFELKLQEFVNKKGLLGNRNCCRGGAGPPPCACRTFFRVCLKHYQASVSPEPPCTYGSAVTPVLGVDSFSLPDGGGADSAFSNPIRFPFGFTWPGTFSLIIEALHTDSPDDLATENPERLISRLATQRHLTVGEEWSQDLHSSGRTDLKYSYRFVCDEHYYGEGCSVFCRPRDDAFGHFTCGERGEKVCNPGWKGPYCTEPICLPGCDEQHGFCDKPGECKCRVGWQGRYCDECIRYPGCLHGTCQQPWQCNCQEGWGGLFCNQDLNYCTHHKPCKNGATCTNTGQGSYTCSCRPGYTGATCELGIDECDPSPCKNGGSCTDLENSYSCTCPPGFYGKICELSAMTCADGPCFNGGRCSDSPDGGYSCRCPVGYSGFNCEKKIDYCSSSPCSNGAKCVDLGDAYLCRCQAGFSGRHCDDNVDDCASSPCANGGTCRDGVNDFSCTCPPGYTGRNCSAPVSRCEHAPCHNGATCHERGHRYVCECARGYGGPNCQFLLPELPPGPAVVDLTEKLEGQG
Description: (§3) To investigate the binding of anti-DLL3 antibodies to human DLL3, wells of high binding flat-bottom plates were coated with recombinant human DLL3 diluted to 0.5 μg/ml. To assess cross-reactivity of the antibodies to DLL1/DLL4, which are closely related family members to DLL3, plates were coated with recombinant human DLL1 diluted to 1 μg/ml, or human DLL4 diluted to 0.5 μg/ml. […] Binding was detected using anti-mouse IgG-HRP and 3,3′,5,5′-Tetramethylbenzidine (TMB) substrate. Signals were normalized to the corresponding positive control antibody.

recombinant human DLL4 = recombinant human DLL4 (human, UniProt Q9NR61 27-524, limits assumed); assay: ELISA, plate-bound recombinant human DLL4 (0.5 µg/mL), anti-mouse IgG-HRP/TMB, % of positive control max
Description: as §3

[2] = biological target: T1, extracellular domain (ECD) of human …; assay: SPR (Biacore 8K), 37 C, antibody captured on anti-mouse Fc, DLL3 ECD injected, 1:1 fit; off rate beyond instrument sensitivity
Excerpt: as §1, §2

[3] = biological target: T1, extracellular domain (ECD) of human …; assay: SPR (Biacore 8K), 37 C, antibody captured on anti-mouse Fc, DLL3 ECD injected, 1:1 fit
Excerpt: as §1
Table 36 lists the calculated binding kinetics (KD). […] Stemcentrx anti-DLL3 antibody was used as a control.

[4] = biological target: T3, recombinant human DLL3 (ELISA coat) (human, UniProt Q9NYJ7 27-492); assay: ELISA, plate coated with recombinant human DLL3 0.5 µg/ml, anti-mouse IgG-HRP
T3 sequence: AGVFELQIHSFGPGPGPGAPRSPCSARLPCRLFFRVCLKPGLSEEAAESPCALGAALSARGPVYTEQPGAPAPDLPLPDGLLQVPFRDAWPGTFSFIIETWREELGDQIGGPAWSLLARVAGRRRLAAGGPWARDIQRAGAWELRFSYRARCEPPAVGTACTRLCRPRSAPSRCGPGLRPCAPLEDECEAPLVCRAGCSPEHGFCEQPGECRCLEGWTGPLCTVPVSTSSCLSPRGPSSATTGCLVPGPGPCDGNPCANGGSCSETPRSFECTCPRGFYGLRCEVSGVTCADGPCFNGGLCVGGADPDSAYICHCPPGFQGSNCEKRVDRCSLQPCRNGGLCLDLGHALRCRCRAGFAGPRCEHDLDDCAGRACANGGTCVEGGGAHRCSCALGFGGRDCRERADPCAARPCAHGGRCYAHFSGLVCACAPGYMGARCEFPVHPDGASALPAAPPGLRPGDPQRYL
Description: as §3
Table 38 lists the calculated EC₅₀ based on the binding data from FIG. 24.

recombinant human DLL4, sequence (Q9NR61 27-524 limits assumed): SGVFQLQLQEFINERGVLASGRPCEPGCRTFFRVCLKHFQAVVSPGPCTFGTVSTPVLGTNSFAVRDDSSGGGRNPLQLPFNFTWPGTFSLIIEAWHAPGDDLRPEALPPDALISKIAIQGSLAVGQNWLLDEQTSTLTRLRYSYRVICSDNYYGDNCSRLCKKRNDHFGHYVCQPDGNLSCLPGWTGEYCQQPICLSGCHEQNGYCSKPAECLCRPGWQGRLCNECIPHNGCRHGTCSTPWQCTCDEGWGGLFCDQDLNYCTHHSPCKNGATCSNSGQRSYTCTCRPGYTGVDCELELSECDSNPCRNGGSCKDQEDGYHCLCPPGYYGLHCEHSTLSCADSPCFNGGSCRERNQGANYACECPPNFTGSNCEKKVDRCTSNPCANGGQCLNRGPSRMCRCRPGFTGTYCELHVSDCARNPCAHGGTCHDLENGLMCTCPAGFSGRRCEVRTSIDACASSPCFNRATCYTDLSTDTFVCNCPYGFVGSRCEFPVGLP

Kd [1]: < 11 pM
binding result (recombinant human DLL1): no binding
binding result (recombinant human DLL4): no binding
koff [2]: ~1.15e-06 s⁻¹
kon [3]: 72100 M⁻¹ s⁻¹
EC50 [4]: 300 pM
B1: anti-DLL3 antibody clone 2F7 (antibody, V domains shown)
VH: QVQLQQSGAELMKPGASVKLSCKATGYTFTGYWIDWIKQRPGHGLEWVGEILPGSDNINYNEKFRGKATFTADTSSNTAYIQLSSLTTEDSAIYFCARCGTGPWFTYWGQGTLVTVSA
VL: NIMMTQSPSSLAVSAGEKVTMSCKSSQSVLYSSNQKNYLAWYQQKPGQSPRLLIYWASTRASGVPDRFTGSGSGTDFTLTITNIQPEDLAVYYCHQFLSSTWTFGGGTKLEIK
notes: Murine antibody produced from a mouse hybridoma
